# Test results published in PMC10792529 (Proteins, 2023).
# Molecular target: wild-type Ralstonia solanacearum Isocyanide Hydratase (Ralstonia solanacearum)
# Assay: crystal structure
substance,measurement,value
wild-type Ralstonia solanacearum Isocyanide Hydratase (enzyme),stoichiometry N,2
